Each block holds one binder with its values, some of them ahead of it. Non-standard residues stand in square brackets, D forms with d. Phe(4-I) = N[C@@H](Cc1ccc(I)cc1)C(=O)O; Nle = CCCC[C@H](N)C(=O)O; dAbu = CC[C@@H](N)C(=O)O; Aib = CC(C)(N)C(=O)O
Target: human MC3R (human, UniProt P41968 1-323)
Assay: cell-based or functional assay

Sequence of human MC3R (P41968 whole entry): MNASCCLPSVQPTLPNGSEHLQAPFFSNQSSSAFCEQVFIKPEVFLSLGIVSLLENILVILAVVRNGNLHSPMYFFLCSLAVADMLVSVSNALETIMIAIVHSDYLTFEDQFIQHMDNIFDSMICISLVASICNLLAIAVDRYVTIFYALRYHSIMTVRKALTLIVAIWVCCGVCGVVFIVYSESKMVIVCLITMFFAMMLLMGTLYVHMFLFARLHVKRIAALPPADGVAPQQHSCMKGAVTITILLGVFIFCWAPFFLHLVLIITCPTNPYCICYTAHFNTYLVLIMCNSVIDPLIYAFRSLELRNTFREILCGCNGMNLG

MC3R cAMP (EC50): 0.0103 µM | MC3R selectivity (relative to MC4R): 184
B1: CTX-1532 (peptide)
peptide: Ac-[Nle][dA]HFR[dW][Nle]RFG-OH
SMILES: CCCC[C@H](NC(C)=O)C(=O)N[C@H](C)C(=O)N[C@@H](Cc1c[nH]cn1)C(=O)N[C@@H](Cc1ccccc1)C(=O)N[C@@H](CCCNC(=N)N)C(=O)N[C@H](Cc1c[nH]c2ccccc12)C(=O)N[C@@H](CCCC)C(=O)N[C@@H](CCCNC(=N)N)C(=O)N[C@@H](Cc1ccccc1)C(=O)NCC(=O)O

MC3R cAMP (EC50): 0.0074 µM | MC3R selectivity (relative to MC4R): 1280
B2: CTX-1538 (peptide)
peptide: Ac-[Nle][dA]HFR[dW]DRFV-OH
SMILES: CCCC[C@H](NC(C)=O)C(=O)N[C@H](C)C(=O)N[C@@H](Cc1c[nH]cn1)C(=O)N[C@@H](Cc1ccccc1)C(=O)N[C@@H](CCCNC(=N)N)C(=O)N[C@H](Cc1c[nH]c2ccccc12)C(=O)N[C@@H](CC(=O)O)C(=O)N[C@@H](CCCNC(=N)N)C(=O)N[C@@H](Cc1ccccc1)C(=O)N[C@H](C(=O)O)C(C)C

MC3R cAMP (EC50): 0.0471 µM | MC3R selectivity (relative to MC4R): 16
Binder: Ac-[Nle][dA]HFR[dW]-NH2 [CTX-1539]

MC3R cAMP (EC50): 0.036 µM | MC3R selectivity (relative to MC4R): 54
B3: CTX-1142 (peptide)
peptide: H-[dY]V[Nle][dA]HFR[dW]D-NH2
SMILES: CCCC[C@H](NC(=O)[C@@H](NC(=O)[C@H](N)Cc1ccc(O)cc1)C(C)C)C(=O)N[C@H](C)C(=O)N[C@@H](Cc1c[nH]cn1)C(=O)N[C@@H](Cc1ccccc1)C(=O)N[C@@H](CCCNC(=N)N)C(=O)N[C@H](Cc1c[nH]c2ccccc12)C(=O)N[C@@H](CC(=O)O)C(N)=O

MC3R cAMP (EC50): 0.0142 µM | MC3R selectivity (relative to MC4R): 314
B4: CTX-1533 (peptide)
peptide: Ac-[Nle][dA]HFR[dW]KRFG-OH
SMILES: CCCC[C@H](NC(C)=O)C(=O)N[C@H](C)C(=O)N[C@@H](Cc1c[nH]cn1)C(=O)N[C@@H](Cc1ccccc1)C(=O)N[C@@H](CCCNC(=N)N)C(=O)N[C@H](Cc1c[nH]c2ccccc12)C(=O)N[C@@H](CCCCN)C(=O)N[C@@H](CCCNC(=N)N)C(=O)N[C@@H](Cc1ccccc1)C(=O)NCC(=O)O

MC3R cAMP (EC50): 0.0066 µM | MC3R selectivity (relative to MC4R): 65
B5: CTX-1131 (peptide)
peptide: H-YV[Nle][dAbu]HFR[dW]D-NH2
SMILES: CCCC[C@H](NC(=O)[C@@H](NC(=O)[C@@H](N)Cc1ccc(O)cc1)C(C)C)C(=O)N[C@H](CC)C(=O)N[C@@H](Cc1c[nH]cn1)C(=O)N[C@@H](Cc1ccccc1)C(=O)N[C@@H](CCCNC(=N)N)C(=O)N[C@H](Cc1c[nH]c2ccccc12)C(=O)N[C@@H](CC(=O)O)C(N)=O

MC3R cAMP (EC50): 0.0265 µM | MC3R selectivity (relative to MC4R): 58
B6: CTX-1130 (peptide)
peptide: H-YV[Nle][Aib]HFR[dW]D-NH2
SMILES: CCCC[C@H](NC(=O)[C@@H](NC(=O)[C@@H](N)Cc1ccc(O)cc1)C(C)C)C(=O)NC(C)(C)C(=O)N[C@@H](Cc1c[nH]cn1)C(=O)N[C@@H](Cc1ccccc1)C(=O)N[C@@H](CCCNC(=N)N)C(=O)N[C@H](Cc1c[nH]c2ccccc12)C(=O)N[C@@H](CC(=O)O)C(N)=O

MC3R cAMP (EC50): 0.0646 µM | MC3R selectivity (relative to MC4R): 15
B7: CTX-1542 (peptide)
peptide: Ac-[Nle][dA]HFR[dW][dF]-NH2
SMILES: CCCC[C@H](NC(C)=O)C(=O)N[C@H](C)C(=O)N[C@@H](Cc1c[nH]cn1)C(=O)N[C@@H](Cc1ccccc1)C(=O)N[C@@H](CCCNC(=N)N)C(=O)N[C@H](Cc1c[nH]c2ccccc12)C(=O)N[C@H](Cc1ccccc1)C(N)=O

MC3R cAMP (EC50): 0.0388 µM | MC3R selectivity (relative to MC4R): 186
B8: CTX-1534 (peptide)
peptide: Ac-[Nle][dA]HFR[dW]DAFG-OH
SMILES: CCCC[C@H](NC(C)=O)C(=O)N[C@H](C)C(=O)N[C@@H](Cc1c[nH]cn1)C(=O)N[C@@H](Cc1ccccc1)C(=O)N[C@@H](CCCNC(=N)N)C(=O)N[C@H](Cc1c[nH]c2ccccc12)C(=O)N[C@@H](CC(=O)O)C(=O)N[C@@H](C)C(=O)N[C@@H](Cc1ccccc1)C(=O)NCC(=O)O

MC3R cAMP (EC50): 0.073 µM | MC3R selectivity (relative to MC4R): 72
B9: CTX-1536 (peptide)
peptide: Ac-[Nle][dA]HFR[dW]DRPG-OH
SMILES: CCCC[C@H](NC(C)=O)C(=O)N[C@H](C)C(=O)N[C@@H](Cc1c[nH]cn1)C(=O)N[C@@H](Cc1ccccc1)C(=O)N[C@@H](CCCNC(=N)N)C(=O)N[C@H](Cc1c[nH]c2ccccc12)C(=O)N[C@@H](CC(=O)O)C(=O)N[C@@H](CCCNC(=N)N)C(=O)N1CCC[C@H]1C(=O)NCC(=O)O

MC3R cAMP (EC50): 0.0516 µM | MC3R selectivity (relative to MC4R): 14
B10: CTX-1545 (peptide)
peptide: Ac-[Nle][Aib]H[Phe(4-I)]R[dW]G-NH2
SMILES: CCCC[C@H](NC(C)=O)C(=O)NC(C)(C)C(=O)N[C@@H](Cc1c[nH]cn1)C(=O)N[C@@H](Cc1ccc(I)cc1)C(=O)N[C@@H](CCCNC(=N)N)C(=O)N[C@H](Cc1c[nH]c2ccccc12)C(=O)NCC(N)=O

MC3R cAMP (EC50): 0.0652 µM | MC3R selectivity (relative to MC4R): 9
B11: CTX-1541 (peptide)
peptide: Ac-[Nle][dA]HFR[dW]F-NH2
SMILES: CCCC[C@H](NC(C)=O)C(=O)N[C@H](C)C(=O)N[C@@H](Cc1c[nH]cn1)C(=O)N[C@@H](Cc1ccccc1)C(=O)N[C@@H](CCCNC(=N)N)C(=O)N[C@H](Cc1c[nH]c2ccccc12)C(=O)N[C@@H](Cc1ccccc1)C(N)=O

MC3R cAMP (EC50): 0.0039 µM | MC3R selectivity (relative to MC4R): 6.8
B12: CTX-1132 (peptide)
peptide: H-YV[Nle][dF]HFR[dW]D-NH2
SMILES: CCCC[C@H](NC(=O)[C@@H](NC(=O)[C@@H](N)Cc1ccc(O)cc1)C(C)C)C(=O)N[C@H](Cc1ccccc1)C(=O)N[C@@H](Cc1c[nH]cn1)C(=O)N[C@@H](Cc1ccccc1)C(=O)N[C@@H](CCCNC(=N)N)C(=O)N[C@H](Cc1c[nH]c2ccccc12)C(=O)N[C@@H](CC(=O)O)C(N)=O

MC3R cAMP (EC50): 0.0024 µM | MC3R selectivity (relative to MC4R): 102
Binder: YVXGRFRWDRFG (Nle at 3; D-Trp at 8) [CTX-1549]

MC3R cAMP (EC50): 0.0015 µM | MC3R selectivity (relative to MC4R): 54
B13: CTX-1547 (peptide)
peptide: H-MGHFR[dW]DRFG-OH
SMILES: CSCC[C@H](N)C(=O)NCC(=O)N[C@@H](Cc1c[nH]cn1)C(=O)N[C@@H](Cc1ccccc1)C(=O)N[C@@H](CCCNC(=N)N)C(=O)N[C@H](Cc1c[nH]c2ccccc12)C(=O)N[C@@H](CC(=O)O)C(=O)N[C@@H](CCCNC(=N)N)C(=O)N[C@@H](Cc1ccccc1)C(=O)NCC(=O)O

MC3R cAMP (EC50): 0.0038 µM | MC3R selectivity (relative to MC4R): 267
B14: CTX-1548 (peptide)
peptide: H-YVMGRFR[dW]DRFG-OH
SMILES: CSCC[C@H](NC(=O)[C@@H](NC(=O)[C@@H](N)Cc1ccc(O)cc1)C(C)C)C(=O)NCC(=O)N[C@@H](CCCNC(=N)N)C(=O)N[C@@H](Cc1ccccc1)C(=O)N[C@@H](CCCNC(=N)N)C(=O)N[C@H](Cc1c[nH]c2ccccc12)C(=O)N[C@@H](CC(=O)O)C(=O)N[C@@H](CCCNC(=N)N)C(=O)N[C@@H](Cc1ccccc1)C(=O)NCC(=O)O

MC3R cAMP (EC50): 0.006 µM | MC3R selectivity (relative to MC4R): 1590
B15: CTX-1535 (peptide)
peptide: Ac-[Nle][dA]HFR[dW]DKFG-OH
SMILES: CCCC[C@H](NC(C)=O)C(=O)N[C@H](C)C(=O)N[C@@H](Cc1c[nH]cn1)C(=O)N[C@@H](Cc1ccccc1)C(=O)N[C@@H](CCCNC(=N)N)C(=O)N[C@H](Cc1c[nH]c2ccccc12)C(=O)N[C@@H](CC(=O)O)C(=O)N[C@@H](CCCCN)C(=O)N[C@@H](Cc1ccccc1)C(=O)NCC(=O)O

MC3R cAMP (EC50): 0.0031 µM | MC3R selectivity (relative to MC4R): 202
B16: CTX-1543 (peptide)
peptide: Ac-[Nle][dA]H[Phe(4-I)]R[dW]G-NH2
SMILES: CCCC[C@H](NC(C)=O)C(=O)N[C@H](C)C(=O)N[C@@H](Cc1c[nH]cn1)C(=O)N[C@@H](Cc1ccc(I)cc1)C(=O)N[C@@H](CCCNC(=N)N)C(=O)N[C@H](Cc1c[nH]c2ccccc12)C(=O)NCC(N)=O

MC3R cAMP (EC50): 0.0025 µM | MC3R selectivity (relative to MC4R): 566
Binder: YVXXHFRWDRFG (Nle at 3; Aib at 4; D-Trp at 8) [CTX-1134]

MC3R cAMP (EC50): 0.356 µM
B17: CTX-1531 (peptide)
peptide: Ac-[Nle][dA]HFR[dW][dF]RFG-OH
SMILES: CCCC[C@H](NC(C)=O)C(=O)N[C@H](C)C(=O)N[C@@H](Cc1c[nH]cn1)C(=O)N[C@@H](Cc1ccccc1)C(=O)N[C@@H](CCCNC(=N)N)C(=O)N[C@H](Cc1c[nH]c2ccccc12)C(=O)N[C@H](Cc1ccccc1)C(=O)N[C@@H](CCCNC(=N)N)C(=O)N[C@@H](Cc1ccccc1)C(=O)NCC(=O)O

MC3R cAMP (EC50): 0.0251 µM | MC3R selectivity (relative to MC4R): 11
B18: CTX-1540 (peptide)
peptide: Ac-[Nle][dA]HFR[dW]G-NH2
SMILES: CCCC[C@H](NC(C)=O)C(=O)N[C@H](C)C(=O)N[C@@H](Cc1c[nH]cn1)C(=O)N[C@@H](Cc1ccccc1)C(=O)N[C@@H](CCCNC(=N)N)C(=O)N[C@H](Cc1c[nH]c2ccccc12)C(=O)NCC(N)=O

MC3R cAMP (EC50): 0.0017 µM | MC3R selectivity (relative to MC4R): 51
Binder: H-VMGHFR[dW]DRFG-OH [CTX-1546]

MC3R cAMP (EC50): 0.0255 µM | MC3R selectivity (relative to MC4R): 278
B19: CTX-1537 (peptide)
peptide: Ac-[Nle][dA]HFR[dW]DRAG-OH
SMILES: CCCC[C@H](NC(C)=O)C(=O)N[C@H](C)C(=O)N[C@@H](Cc1c[nH]cn1)C(=O)N[C@@H](Cc1ccccc1)C(=O)N[C@@H](CCCNC(=N)N)C(=O)N[C@H](Cc1c[nH]c2ccccc12)C(=O)N[C@@H](CC(=O)O)C(=O)N[C@@H](CCCNC(=N)N)C(=O)N[C@@H](C)C(=O)NCC(=O)O

— patent US20240287154A1, “MC3R AGONIST PEPTIDES” (The Regents of the University of Michigan, priority 2021, published 2024)
